From patent EP2341079A1 (Institut Pasteur, dated 2011) come the findings set out here.

As a reminder, the Kd is the equilibrium constant for the complex coming apart. A low value points to tighter binding. The term koff denotes a measure of how fast the partners let go of each other. Read a low koff as slow dissociation. One may read the kon as the second-order rate constant of association. Read a high kon as fast association.

One assay has as its target streptavidin (UniProt P22629 37-163, limits assumed). Kind of assay: ELISA (data not shown). (In an ELISA, binding on a coated surface is turned into a signal by an enzyme label.)
For the next assay, the target named is neutravidin (UniProt P02701 25-152). Kind of assay: ELISA (data not shown).
Sequence of neutravidin (P02701 25-152): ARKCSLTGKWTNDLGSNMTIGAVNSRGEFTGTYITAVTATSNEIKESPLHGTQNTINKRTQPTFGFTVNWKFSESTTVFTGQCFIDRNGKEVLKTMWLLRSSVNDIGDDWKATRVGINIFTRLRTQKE
Assay [1] concerns the target T1, hIgG (IgG pool from human serum containing hIgG1, hIgG2, hIgG3, hIgG4; Fluka reference number 56834).
T1 construct: Polyclonal mixture from human serum; also called human IgG; Immunoglobulin G from human serum
Kind of assay: SPR (BIAcore 3000), hIgG on CM5 chip, binder injected, 1:1 global fit. For orientation: SPR reads the build-up and loss of mass on a sensor chip optically.

Assay [2] addresses T2, hIgG1 (Sigma-Aldrich reference number I5029) (human, UniProt P01857-1 1-330 = IgG part).
T2 construct: Purified subclass, bought; also called Human IgG1; human IgG1 subclass
Kind of assay: SPR, hIgG1 immobilised at low density, C3 injected 16-1000 nM, global fit (Fig. 6).

T2 sequence (P01857 other isoform, or with tags, fused parts or gaps): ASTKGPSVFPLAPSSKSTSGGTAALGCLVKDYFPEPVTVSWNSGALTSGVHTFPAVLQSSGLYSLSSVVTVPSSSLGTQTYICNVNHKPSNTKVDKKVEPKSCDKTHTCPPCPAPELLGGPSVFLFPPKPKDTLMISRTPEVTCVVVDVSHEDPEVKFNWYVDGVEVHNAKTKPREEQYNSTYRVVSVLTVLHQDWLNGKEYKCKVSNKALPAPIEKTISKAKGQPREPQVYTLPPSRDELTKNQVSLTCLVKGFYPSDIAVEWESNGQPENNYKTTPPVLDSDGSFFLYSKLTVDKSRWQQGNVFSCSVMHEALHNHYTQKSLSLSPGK
Sequence of streptavidin (P22629 37-163 limits assumed): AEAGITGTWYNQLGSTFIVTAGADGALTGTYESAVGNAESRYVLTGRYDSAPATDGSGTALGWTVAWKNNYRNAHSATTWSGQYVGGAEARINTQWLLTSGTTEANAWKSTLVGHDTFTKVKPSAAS

B1: C3 binder (designed binder)
chain: SVKVKFLLNGEEKEVDTSKIRDVCRQGKNVKFLYNDNGKYGAGNVDEKDAPKELLDMLARAEREKK
notes: Sac7d variant made with a His-tag in E. coli; monomeric by gel filtration; Used free, biotinylated on a streptavidin chip, labelled with AlexaFluor 680, or NHS-coupled to agarose, as said under assay; also called clone C3; not shown: RGS-(His)6 tag from vector pFP1001 (pQE30 derivative)
On to B1, for which the binding result with streptavidin is on record as “no binding”. In addition, in the assay with neutravidin, the binding result is “no binding”. In assay [1], the Kd came out at 74 nM, the koff was found to be 0.066 s⁻¹ and the kon turned out to be 890000 M⁻¹ s⁻¹. In assay [2], the Kd is 94 nM, the koff turned out to be 0.051 s⁻¹ and the on-rate constant (kon) was 540000 M⁻¹ s⁻¹.
